# Test results reported in US20180346564A1 (TEIJIN PHARMA, published 2018).
# T1: monophosphorylated tau peptide 1×P, TSPRHLSNVS(pS)TGSIDMVDSPC (human, phosphoserine (pS) at peptide position 11 (tau Ser413))
# T1 construct: also called 1xP; 1×P peptide
# T1 peptide: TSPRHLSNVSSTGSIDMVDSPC
# B1: Humanized × [MAPT_H] mAb (Ta1505-VL46_G34S/VH11) IgG4 S228P/Kappa (CX) (antibody, V domains shown)
# VH: EVQLVESGGGLVQPGGSLRLSCAASGFTFSSFALNWVRQAPGKGLEWVGHIRSKTNNYATFYAASVKDRFTVSRDDSQNTAYLQMNSLKTEDTATYYCVRRGPRDSWFGYWGQGTLVTVSS
# VL: DIVMTQSPLSLPVTLGEPASISCRSSQSIVHSNSNTYLEWYLQKPGQSPQLLIYTVSNRFSGVPDRFSGSGSGTDFTLKISRVEAEDLGVYYCFQGSHLPLTFGGGTKVEIKR
# notes: also called hu VL46/VH11 G34S IgG4
# Legend:
# [1] = target: T1, monophosphorylated tau peptide 1×P, …; assay: SPR Biacore, 1×P peptide immobilized
# Procedure: Antibody binding to immobilized, phosphorylated Tau peptide was measured using a Series S Sensor Chip CM3 (GE Healthcare, BR100536). The chip was activated using an amine coupling kit, then 30 μg/mL phosphorylated Tau peptide (SEQ ID NO:75) in 10 mM sodium acetate, pH 5.0 was injected until 51 RU had been immobilized. The chip was blocked with ethanolamine. A negative control reference surface was prepared similarly, using non-phosphorylated Tau peptide ([…], SEQ ID NO:77). […] Each concentration and several buffer blanks were injected for 3 minutes at a flowrate of 45 μL/minute. The dissociation of the antibody was monitored for 15 minutes. The surface was regenerated with a 30 second injection of 100 mM hydrochloric acid (Fisher Scientific, SA56-1, Waltham, Mass.).
# The data were processed and fit using Biacore™ M T200 Evaluation Software version 2.0 or Biacore™ 4000 Evaluation Software version 1.1 (GE Healthcare). The data were “double referenced” by subtracting the response from a negative control flowcell and subtracting the response from a buffer injection or the average response from two buffer injections. The data were then fit with the “1:1 Binding” model to determine the association rate constant, kₐ (M⁻¹s⁻¹, where “M” equals molar and “s” equals seconds) and the dissociation rate constant, kd (s⁻¹). […]
# [2] = target: T2, recombinant human phosphorylated Tau protein (80AWB) (human, UniProt P10636-8 1-441, limits assumed, phosphorylated; sites not stated); assay: SPR Biacore, phosphorylated Tau protein immobilized
# T2 construct: also called Protein Immobilized
# Procedure: Antibody binding to immobilized, phosphorylated Tau protein was measured using Series S Sensor Chips NTA (GE Healthcare, BR100034). The running buffer for the immobilization was 10 mM HEPES, 150 mM […], 0.05% v/v Surfactant P20, pH 7.4 (GE Healthcare, BR100671) and the flow rate was 10 μL/minute. 350 mM EDTA was injected for 1 minute to clean the chip, followed by a 2 minute injection of 0.5 mM NiCl₂ (GE Healthcare, NTA Reagent Kit) to prepare the chip to capture his-tagged protein. The chip was activated according to the manufacturer's instructions using an amine coupling kit (GE Healthcare, BR100633), then 300 nM phosphorylated Tau protein (80AWB) was injected until the desired amount of protein had been immobilized. The chip was blocked with ethanolamine from the amine coupling kit. Each experiment used multiple levels of immobilized phosphorylated Tau protein. The lowest level varied from 54 resonance units (RU) to 452 RU, and the highest level varied from 463 RU to 1020 RU. […] Each concentration and several buffer blanks were injected for 3 minutes at a flowrate of […]. The dissociation of the antibody was monitored for 15 minutes, then the surface was regenerated with a 30 second to 1 minute injection of 100 mM CAPS (Sigma, C6070), 1 M KCl (Sigma, P9541), 1 mM EDTA, 2 mM DTT, pH 10.5. […]
# T2 sequence (P10636 other isoform, or with tags, fused parts or gaps limits assumed): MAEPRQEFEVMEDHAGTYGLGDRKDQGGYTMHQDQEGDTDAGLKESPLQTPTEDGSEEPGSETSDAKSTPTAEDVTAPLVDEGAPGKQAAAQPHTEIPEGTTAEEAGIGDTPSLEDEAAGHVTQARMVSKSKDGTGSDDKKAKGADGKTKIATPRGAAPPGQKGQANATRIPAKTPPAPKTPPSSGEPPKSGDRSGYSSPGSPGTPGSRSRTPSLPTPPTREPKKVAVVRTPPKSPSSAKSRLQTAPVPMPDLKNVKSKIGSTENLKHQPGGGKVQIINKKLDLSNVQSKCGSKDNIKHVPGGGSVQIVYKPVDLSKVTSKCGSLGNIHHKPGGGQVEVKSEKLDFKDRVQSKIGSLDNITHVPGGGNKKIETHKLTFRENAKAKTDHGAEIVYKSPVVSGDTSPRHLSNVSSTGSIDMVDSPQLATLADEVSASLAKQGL
binder,measurement,setting,value
B1,binding result,[1],no binding (tested: 0.37 nM to 30 nM antibody)
same,binding result,[2],no binding (tested: 0.37 nM to 30 nM antibody)
